Measurements from patent US20260022184.

T1: CM10
T1 chain: MVPSALTVSG

T2: CM2
T2 chain: MVLSAVTASG

T3: CM5
T3 chain: MVLSAPTASG

T4: CM6
T4 chain: MVPSAVTASG

T5: CM9
T5 chain: MVVSALTASG

T6: CM8
T6 chain: MVASALTASG

T7: CM7
T7 chain: MVPSAYTASG


What was measured:
CM10 = molecular target: T1, CM10
CM2 = molecular target: T2, CM2
CM5 = molecular target: T3, CM5
CM6 = molecular target: T4, CM6
CM9 = molecular target: T5, CM9
CM8 = molecular target: T6, CM8
CM7 = molecular target: T7, CM7

SB1902-C2, sequence (chain, as listed by the source, chain 1 of 2): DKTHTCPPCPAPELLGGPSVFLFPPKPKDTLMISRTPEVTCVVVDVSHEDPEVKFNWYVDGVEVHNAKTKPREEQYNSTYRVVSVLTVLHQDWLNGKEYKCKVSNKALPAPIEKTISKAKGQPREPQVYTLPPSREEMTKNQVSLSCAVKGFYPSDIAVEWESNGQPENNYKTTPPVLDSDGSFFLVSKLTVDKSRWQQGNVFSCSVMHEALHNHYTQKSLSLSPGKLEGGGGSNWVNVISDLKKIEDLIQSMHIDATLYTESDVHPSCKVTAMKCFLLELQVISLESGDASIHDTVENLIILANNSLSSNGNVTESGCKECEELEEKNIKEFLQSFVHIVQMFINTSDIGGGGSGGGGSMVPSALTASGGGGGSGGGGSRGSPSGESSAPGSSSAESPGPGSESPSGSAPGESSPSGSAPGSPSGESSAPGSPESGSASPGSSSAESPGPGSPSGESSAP
SB1902-C2, sequence (chain, as listed by the source, chain 2 of 2): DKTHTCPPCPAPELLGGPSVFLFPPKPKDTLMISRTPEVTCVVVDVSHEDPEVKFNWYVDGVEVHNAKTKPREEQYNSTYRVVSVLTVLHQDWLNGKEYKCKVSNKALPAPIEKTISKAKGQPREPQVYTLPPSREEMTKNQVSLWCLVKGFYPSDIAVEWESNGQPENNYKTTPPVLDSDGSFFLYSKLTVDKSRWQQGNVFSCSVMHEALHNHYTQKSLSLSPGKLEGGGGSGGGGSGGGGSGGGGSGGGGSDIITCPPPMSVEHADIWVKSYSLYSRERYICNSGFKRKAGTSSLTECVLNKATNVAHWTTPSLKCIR
SB1902-C4, sequence (chain, as listed by the source, chain 1 of 2): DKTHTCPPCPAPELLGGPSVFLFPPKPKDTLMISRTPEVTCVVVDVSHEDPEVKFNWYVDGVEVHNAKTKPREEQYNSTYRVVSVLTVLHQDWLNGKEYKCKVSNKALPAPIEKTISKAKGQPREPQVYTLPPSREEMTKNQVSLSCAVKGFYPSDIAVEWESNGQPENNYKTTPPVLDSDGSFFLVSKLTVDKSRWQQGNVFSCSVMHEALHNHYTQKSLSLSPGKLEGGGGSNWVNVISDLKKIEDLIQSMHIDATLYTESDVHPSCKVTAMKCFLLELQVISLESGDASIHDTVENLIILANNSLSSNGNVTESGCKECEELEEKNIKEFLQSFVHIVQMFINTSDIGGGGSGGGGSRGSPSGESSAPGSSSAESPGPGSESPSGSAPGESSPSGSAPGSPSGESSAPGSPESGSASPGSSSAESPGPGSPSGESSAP
SB1902-C4, sequence (chain, as listed by the source, chain 2 of 2): as the sequence (chain, as listed by the source, chain 2 of 2) above
SB1902-C5, sequence (chain, as listed by the source, chain 1 of 2): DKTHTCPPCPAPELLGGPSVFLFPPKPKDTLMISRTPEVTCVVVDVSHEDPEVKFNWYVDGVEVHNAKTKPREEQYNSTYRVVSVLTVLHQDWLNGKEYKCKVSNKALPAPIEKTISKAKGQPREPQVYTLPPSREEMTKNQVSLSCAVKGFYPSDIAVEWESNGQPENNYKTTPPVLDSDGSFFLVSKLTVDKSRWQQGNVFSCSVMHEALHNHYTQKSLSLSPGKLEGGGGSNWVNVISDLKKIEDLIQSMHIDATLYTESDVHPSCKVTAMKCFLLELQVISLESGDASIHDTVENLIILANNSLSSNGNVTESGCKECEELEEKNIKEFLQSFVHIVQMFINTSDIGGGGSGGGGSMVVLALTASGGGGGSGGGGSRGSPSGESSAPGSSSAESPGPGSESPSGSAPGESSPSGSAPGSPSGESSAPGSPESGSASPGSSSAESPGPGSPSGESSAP
SB1902-C5, sequence (chain, as listed by the source, chain 2 of 2): as the sequence (chain, as listed by the source, chain 2 of 2) above

Row | Protein | in vitro protease digestion (data not shown) (CM10) | in vitro protease digestion (data not shown) (CM2) | in vitro protease digestion (data not shown) (CM5) | in vitro protease digestion (data not shown) (CM6) | in vitro protease digestion (data not shown) (CM9) | in vitro protease digestion (data not shown) (CM8) | in vitro protease digestion, polyacrylamide gel (SB1902-C5) | in vitro protease digestion, polyacrylamide gel (SB1902-C4) | in vitro protease digestion, polyacrylamide gel (SB1902-C2) | in vitro protease digestion (data not shown) (CM7) | digestion efficiency by SDS-PAGE (1 µg activated MMP2, 250 µg prodrug, 37° C., 5 hrs) (SB1902-C2)
1 | recombinant human MMP9 (protein) MRTPRCGVPDLGRFQTFEGDLKWHHHNITYWIQNYSEDLPRAVIDDAFARAFALWSAVTPLTFTRVYSRDADIVIQFGVAEHGDGYPFDGKDGLLAHAFPPGPGIQGDAHFDDDELWSLGKGVVVPTRFGNADGAACHFPFIFEGRSYSACTTDGRSDGLPWCSTTANYDTDDRFGFCPSERLYTQDGNADGKPCQFPFIFQGQSYSACTTDGRSDGYRWCATTANYDRDKLFGFCPTRADSTVMGGNSAGELCVFPFTFLGKEYSTCTSEGRGDGRLWCATTSNFDSDKKWGFCPDQGYSLFLVAAHEFGHALGLDHSSVPEALMYPMYRFTEGPPLHKDDVNGIRHLYGPRPEPEPRPPTTTTPQPTAPPTVCPTGPPTVHPSERPTAGPTGPPSAGPTGPPTAGPSTATTVPLSPVDDACNVNIFDAIAEIGNQLYLFKDGKYWRFSEGRGSRPQGPFLIADKWPALPRKLDSVFEERLSKKLFFFSGRQVWVYTGASVLGPRRLDKLGLGADVAQVTGALRSGRGKMLLFSGRRLWRFDVKAQMVDPRSASEVDRMFPGVPLDTHDVFQYREKAYFCQDRFYWRVSSRSELNQVDQVGYVTYDILQCPED | The other cleavable moieties (such as CM2, CM5-CM10) was also cleavable in vitro by both MMP2 and MMP9 (data not shown) | The other cleavable moieties (such as CM2, CM5-CM10) was also cleavable in vitro by both MMP2 and MMP9 (data not shown) | The other cleavable moieties (such as CM2, CM5-CM10) was also cleavable in vitro by both MMP2 and MMP9 (data not shown) | The other cleavable moieties (such as CM2, CM5-CM10) was also cleavable in vitro by both MMP2 and MMP9 (data not shown) | The other cleavable moieties (such as CM2, CM5-CM10) was also cleavable in vitro by both MMP2 and MMP9 (data not shown) | The other cleavable moieties (such as CM2, CM5-CM10) was also cleavable in vitro by both MMP2 and MMP9 (data not shown) | The mutated substrate CM4 was cleavable in vitro by both MMP2 and MMP9 enzymes, with an enzyme dose-dependent manner | the non-cleavable G4S linker in SB1902-C4 was resistant to both MMP2 and MMP9 enzyme digestion | The mutated substrate CM1 was cleavable in vitro by both MMP2 and MMP9 enzymes, with an enzyme dose-dependent manner | The other cleavable moieties (such as CM2, CM5-CM10) was also cleavable in vitro by both MMP2 and MMP9 (data not shown) | 
2 | recombinant human MMP2 (protein) YNFFPRKPKWDKNQITYRIIGYTPDLDPETVDDAFARAFQVWSDVTPLRFSRIHDGEADIMINFGRWEHGDGYPFDGKDGLLAHAFAPGTGVGGDSHFDDDELWTLGEGQVVRVKYGNADGEYCKFPFLFNGKEYNSCTDTGRSDGFLWCSTTYNFEKDGKYGFCPHEALFTMGGNAEGQPCKFPFRFQGTSYDSCTTEGRTDGYRWCGTTEDYDRDKKYGFCPETAMSTVGGNSEGAPCVFPFTFLGNKYESCTSAGRSDGKMWCATTANYDDDRKWGFCPDQGYSLFLVAAHEFGHAMGLEHSQDPGALMAPIYTYTKNFRLSQDDIKGIQELYGASPDIDLGTGPTPTLGPVTPEICKQDIVFDGIAQIRGEIFFFKDRFIWRTVTPRDKPMGPLLVATFWPELPEKIDAVYEAPQEEKAVFFAGNEYWIYSASTLERGYPKPLTSLGLPPDVQRVDAAFNWSKNKKTYIFAGDKFWRYNEVKKKMDPGFPKLIADAWNAIPDNLDAVVDLQGGGHSYFFKGAYYLKLENQSLKSVKFGSIKSDWLGC | The other cleavable moieties (such as CM2, CM5-CM10) was also cleavable in vitro by both MMP2 and MMP9 (data not shown) | The other cleavable moieties (such as CM2, CM5-CM10) was also cleavable in vitro by both MMP2 and MMP9 (data not shown) | The other cleavable moieties (such as CM2, CM5-CM10) was also cleavable in vitro by both MMP2 and MMP9 (data not shown) | The other cleavable moieties (such as CM2, CM5-CM10) was also cleavable in vitro by both MMP2 and MMP9 (data not shown) | The other cleavable moieties (such as CM2, CM5-CM10) was also cleavable in vitro by both MMP2 and MMP9 (data not shown) | The other cleavable moieties (such as CM2, CM5-CM10) was also cleavable in vitro by both MMP2 and MMP9 (data not shown) | The mutated substrate CM4 was cleavable in vitro by both MMP2 and MMP9 enzymes, with an enzyme dose-dependent manner | the non-cleavable G4S linker in SB1902-C4 was resistant to both MMP2 and MMP9 enzyme digestion | The mutated substrate CM1 was cleavable in vitro by both MMP2 and MMP9 enzymes, with an enzyme dose-dependent manner | The other cleavable moieties (such as CM2, CM5-CM10) was also cleavable in vitro by both MMP2 and MMP9 (data not shown) | about 90% of the prodrug SB1902-C2 was digested
